Experiment [1] has as its target T1, human GIP receptor (human, UniProt P48546 22-466).
T1 construct: whole, on cells; also called hGIPR
T1 sequence (looked up): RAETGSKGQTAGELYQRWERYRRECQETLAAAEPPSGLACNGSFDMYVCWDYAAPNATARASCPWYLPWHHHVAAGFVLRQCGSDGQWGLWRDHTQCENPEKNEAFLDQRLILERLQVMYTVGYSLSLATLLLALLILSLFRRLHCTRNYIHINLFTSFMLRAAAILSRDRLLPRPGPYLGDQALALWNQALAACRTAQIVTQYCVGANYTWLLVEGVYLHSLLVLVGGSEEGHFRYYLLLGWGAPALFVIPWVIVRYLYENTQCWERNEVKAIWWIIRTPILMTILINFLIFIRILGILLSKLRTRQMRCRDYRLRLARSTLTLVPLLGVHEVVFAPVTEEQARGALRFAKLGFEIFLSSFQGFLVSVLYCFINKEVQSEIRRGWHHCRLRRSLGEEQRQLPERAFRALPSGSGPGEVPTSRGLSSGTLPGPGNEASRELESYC
Put plainly: IC50 with 2% HSA over IC50 with 0.1% casein, 125I-hGIP competition, COS-7/hGIPR.
Protocol: (§1) After incubation, the cells were washed twice in ice-cold binding buffer (+/−2% HSA) and lysed using 200 mM NaOH with 1% SDS for 30 min. Nonspecific binding was determined as the binding of radioactive ligand to untransfected cells.

In experiment [2] the target is T1, human GIP receptor. Put plainly: cell-based or functional assay.
The target of experiment [3] is T1, human GIP receptor. Put plainly: 125I-hGIP competition binding, COS-7/hGIPR, 2% HSA.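 Also: nonspecific binding defined as radioligand binding to untransfected cells.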
Protocol: as §1
Experiment [4] addresses T1, human GIP receptor. Put plainly: 125I-hGIP competition binding, COS-7 cells expressing hGIPR.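 Also: nonspecific binding taken as radioligand bound by untransfected cells, binding buffer with or without 2% HSA.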
Protocol: as §1
Experiment [5] deals with T1, human GIP receptor. Put plainly: 125I-hGIP competition binding, COS-7/hGIPR, 0.1% casein.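 Also: nonspecific binding defined as radioligand binding measured on untransfected cells.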
Protocol: as §1

Ends that are not written are not given here. * marks the point of attachment. C16 diacid = O=C(O)CCCCCCCCCCCCCCC(=O)*

B1: AT169 [hGIP(5-30)NH2[I7K]-C16diacid/7] (peptide)
peptide: TFK(C16 diacid)SDYSIAMDKIHQQDFVNWLLAQK-NH2
modifications: N-terminus assumed
SMILES: CC[C@H](C)[C@H](NC(=O)[C@H](CO)NC(=O)[C@H](Cc1ccc(O)cc1)NC(=O)[C@H](CC(=O)O)NC(=O)[C@H](CO)NC(=O)[C@H](CCCCNC(=O)CCCCCCCCCCCCCCC(=O)O)NC(=O)[C@H](Cc1ccccc1)NC(=O)[C@@H](N)[C@@H](C)O)C(=O)N[C@@H](C)C(=O)N[C@@H](CCSC)C(=O)N[C@@H](CC(=O)O)C(=O)N[C@@H](CCCCN)C(=O)N[C@H](C(=O)N[C@@H](Cc1c[nH]cn1)C(=O)N[C@@H](CCC(N)=O)C(=O)N[C@@H](CCC(N)=O)C(=O)N[C@@H](CC(=O)O)C(=O)N[C@@H](Cc1ccccc1)C(=O)N[C@H](C(=O)N[C@@H](CC(N)=O)C(=O)N[C@@H](Cc1c[nH]c2ccccc12)C(=O)N[C@@H](CC(C)C)C(=O)N[C@@H](CC(C)C)C(=O)N[C@@H](C)C(=O)N[C@@H](CCC(N)=O)C(=O)N[C@@H](CCCCN)C(N)=O)C(C)C)[C@@H](C)CC
Turning to B1, the “Fold change HSA (2%)/Casein (0.1%)” value with human GIP receptor [1] is 5.8 fold. For the same molecule, in the experiment with human GIP receptor [2], the “cAMP agonism, Emax” value is 0; the “cAMP antagonism” value was 37 nM; the “cAMP antagonism, log” value is -7.4 log M. In the experiment with human GIP receptor [3], the IC50 (in general, the concentration that inhibits the measured activity by half) worked out at 166 nM and the logIC50 is -6.8 log M. Moreover, in the experiment with human GIP receptor [4], the IC50 amounted to 28 nM and the “log IC50” value is -7.5 log M. In the experiment with human GIP receptor [5], this molecule displayed a concentration for half-maximal inhibition (IC50) of 28.8 nM and a logIC50 of -7.5 log M.

B2: AT173 [hGIP(5-30)NH2[S11K]-C16diacid/11] (peptide)
peptide: TFISDYK(C16 diacid)IAMDKIHQQDFVNWLLAQK-NH2
modifications: N-terminus assumed
SMILES: CC[C@H](C)[C@H](NC(=O)[C@H](CCCCNC(=O)CCCCCCCCCCCCCCC(=O)O)NC(=O)[C@H](Cc1ccc(O)cc1)NC(=O)[C@H](CC(=O)O)NC(=O)[C@H](CO)NC(=O)[C@@H](NC(=O)[C@H](Cc1ccccc1)NC(=O)[C@@H](N)[C@@H](C)O)[C@@H](C)CC)C(=O)N[C@@H](C)C(=O)N[C@@H](CCSC)C(=O)N[C@@H](CC(=O)O)C(=O)N[C@@H](CCCCN)C(=O)N[C@H](C(=O)N[C@@H](Cc1c[nH]cn1)C(=O)N[C@@H](CCC(N)=O)C(=O)N[C@@H](CCC(N)=O)C(=O)N[C@@H](CC(=O)O)C(=O)N[C@@H](Cc1ccccc1)C(=O)N[C@H](C(=O)N[C@@H](CC(N)=O)C(=O)N[C@@H](Cc1c[nH]c2ccccc12)C(=O)N[C@@H](CC(C)C)C(=O)N[C@@H](CC(C)C)C(=O)N[C@@H](C)C(=O)N[C@@H](CCC(N)=O)C(=O)N[C@@H](CCCCN)C(N)=O)C(C)C)[C@@H](C)CC
With B2, in the experiment with human GIP receptor [1], the “Fold change HSA (2%)/Casein (0.1%)” value turned out to be 7.4 fold. In the experiment with human GIP receptor [2], the “cAMP agonism, Emax” value was 0; the “cAMP antagonism” value was found to be 10 nM; the “cAMP antagonism, log” value is -8 log M. In the experiment with human GIP receptor [3], this molecule returned an IC50 of 60.3 nM and a logIC50 of -7.2 log M. Moreover, in the experiment with human GIP receptor [4], the IC50 turned out to be 8 nM and the “log IC50” value was -8.1 log M. In the experiment with human GIP receptor [5], this molecule registered an IC50 of 8.1 nM and a logIC50 of -8.1 log M.

B3: AT171 [hGIP(5-30)NH2[D9K]-C16diacid/9] (peptide)
peptide: TFISK(C16 diacid)YSIAMDKIHQQDFVNWLLAQK-NH2
modifications: N-terminus assumed
SMILES: CC[C@H](C)[C@H](NC(=O)[C@H](CO)NC(=O)[C@H](Cc1ccc(O)cc1)NC(=O)[C@H](CCCCNC(=O)CCCCCCCCCCCCCCC(=O)O)NC(=O)[C@H](CO)NC(=O)[C@@H](NC(=O)[C@H](Cc1ccccc1)NC(=O)[C@@H](N)[C@@H](C)O)[C@@H](C)CC)C(=O)N[C@@H](C)C(=O)N[C@@H](CCSC)C(=O)N[C@@H](CC(=O)O)C(=O)N[C@@H](CCCCN)C(=O)N[C@H](C(=O)N[C@@H](Cc1c[nH]cn1)C(=O)N[C@@H](CCC(N)=O)C(=O)N[C@@H](CCC(N)=O)C(=O)N[C@@H](CC(=O)O)C(=O)N[C@@H](Cc1ccccc1)C(=O)N[C@H](C(=O)N[C@@H](CC(N)=O)C(=O)N[C@@H](Cc1c[nH]c2ccccc12)C(=O)N[C@@H](CC(C)C)C(=O)N[C@@H](CC(C)C)C(=O)N[C@@H](C)C(=O)N[C@@H](CCC(N)=O)C(=O)N[C@@H](CCCCN)C(N)=O)C(C)C)[C@@H](C)CC
With B3, the “Fold change HSA (2%)/Casein (0.1%)” value with human GIP receptor [1] worked out at 8.3 fold. Further, in the experiment with human GIP receptor [2], the “cAMP agonism, Emax” value was 0; the “cAMP antagonism” value amounted to 35 nM; the “cAMP antagonism, log” value was -7.5 log M. In addition, in the experiment with human GIP receptor [3], the IC50 is 661 nM and the logIC50 was -6.2 log M. Also, in the experiment with human GIP receptor [4], the IC50 turned out to be 86 nM and the “log IC50” value was -7.1 log M. In the experiment with human GIP receptor [5], this molecule came in with an IC50 of 79.4 nM and a logIC50 of -7.1 log M.

B4: AT172 [hGIP(5-30)NH2[Y10K]-C16diacid/10] (peptide)
peptide: TFISDK(C16 diacid)SIAMDKIHQQDFVNWLLAQK-NH2
modifications: N-terminus assumed
SMILES: CC[C@H](C)[C@H](NC(=O)[C@H](CO)NC(=O)[C@H](CCCCNC(=O)CCCCCCCCCCCCCCC(=O)O)NC(=O)[C@H](CC(=O)O)NC(=O)[C@H](CO)NC(=O)[C@@H](NC(=O)[C@H](Cc1ccccc1)NC(=O)[C@@H](N)[C@@H](C)O)[C@@H](C)CC)C(=O)N[C@@H](C)C(=O)N[C@@H](CCSC)C(=O)N[C@@H](CC(=O)O)C(=O)N[C@@H](CCCCN)C(=O)N[C@H](C(=O)N[C@@H](Cc1c[nH]cn1)C(=O)N[C@@H](CCC(N)=O)C(=O)N[C@@H](CCC(N)=O)C(=O)N[C@@H](CC(=O)O)C(=O)N[C@@H](Cc1ccccc1)C(=O)N[C@H](C(=O)N[C@@H](CC(N)=O)C(=O)N[C@@H](Cc1c[nH]c2ccccc12)C(=O)N[C@@H](CC(C)C)C(=O)N[C@@H](CC(C)C)C(=O)N[C@@H](C)C(=O)N[C@@H](CCC(N)=O)C(=O)N[C@@H](CCCCN)C(N)=O)C(C)C)[C@@H](C)CC
B4: the “Fold change HSA (2%)/Casein (0.1%)” value with human GIP receptor [1] amounted to 3.8 fold. Moreover, in the experiment with human GIP receptor [2], the “cAMP agonism, Emax” value was determined as 0; the “cAMP antagonism” value is 259 nM; the “cAMP antagonism, log” value is -6.6 log M. In the experiment with human GIP receptor [3], this molecule showed an IC50 of 955 nM and a logIC50 of -6 log M. For the same molecule, in the experiment with human GIP receptor [4], the IC50 was found to be 252 nM and the “log IC50” value is -6.6 log M. In the experiment with human GIP receptor [5], this molecule registered a 50% inhibitory concentration (IC50) of 251 nM and a logIC50 of -6.6 log M.

B5: AT174 [hGIP(5-30)NH2[I12K]-C16diacid/12] (peptide)
peptide: TFISDYSK(C16 diacid)AMDKIHQQDFVNWLLAQK-NH2
modifications: N-terminus assumed
SMILES: CC[C@H](C)[C@H](NC(=O)[C@H](CCCCN)NC(=O)[C@H](CC(=O)O)NC(=O)[C@H](CCSC)NC(=O)[C@H](C)NC(=O)[C@H](CCCCNC(=O)CCCCCCCCCCCCCCC(=O)O)NC(=O)[C@H](CO)NC(=O)[C@H](Cc1ccc(O)cc1)NC(=O)[C@H](CC(=O)O)NC(=O)[C@H](CO)NC(=O)[C@@H](NC(=O)[C@H](Cc1ccccc1)NC(=O)[C@@H](N)[C@@H](C)O)[C@@H](C)CC)C(=O)N[C@@H](Cc1c[nH]cn1)C(=O)N[C@@H](CCC(N)=O)C(=O)N[C@@H](CCC(N)=O)C(=O)N[C@@H](CC(=O)O)C(=O)N[C@@H](Cc1ccccc1)C(=O)N[C@H](C(=O)N[C@@H](CC(N)=O)C(=O)N[C@@H](Cc1c[nH]c2ccccc12)C(=O)N[C@@H](CC(C)C)C(=O)N[C@@H](CC(C)C)C(=O)N[C@@H](C)C(=O)N[C@@H](CCC(N)=O)C(=O)N[C@@H](CCCCN)C(N)=O)C(C)C
On to B5, for which the “Fold change HSA (2%)/Casein (0.1%)” value in the experiment with human GIP receptor [1] was 3.5 fold. In addition, in the experiment with human GIP receptor [2], the “cAMP agonism, Emax” value turned out to be 0; the “cAMP antagonism” value was found to be 23 nM; the “cAMP antagonism, log” value is -7.6 log M. In the experiment with human GIP receptor [3], this molecule had an IC50 of 282 nM and a logIC50 of -6.6 log M. Further, in the experiment with human GIP receptor [4], the IC50 was 80 nM and the “log IC50” value is -7.1 log M. In the experiment with human GIP receptor [5], this molecule came in with an IC50 of 79.4 nM and a logIC50 of -7.1 log M.

B6: AT170 [hGIP(5-30)NH2[S8K]-C16diacid/8] (peptide)
peptide: TFIK(C16 diacid)DYSIAMDKIHQQDFVNWLLAQK-NH2
modifications: N-terminus assumed
SMILES: CC[C@H](C)[C@H](NC(=O)[C@H](CO)NC(=O)[C@H](Cc1ccc(O)cc1)NC(=O)[C@H](CC(=O)O)NC(=O)[C@H](CCCCNC(=O)CCCCCCCCCCCCCCC(=O)O)NC(=O)[C@@H](NC(=O)[C@H](Cc1ccccc1)NC(=O)[C@@H](N)[C@@H](C)O)[C@@H](C)CC)C(=O)N[C@@H](C)C(=O)N[C@@H](CCSC)C(=O)N[C@@H](CC(=O)O)C(=O)N[C@@H](CCCCN)C(=O)N[C@H](C(=O)N[C@@H](Cc1c[nH]cn1)C(=O)N[C@@H](CCC(N)=O)C(=O)N[C@@H](CCC(N)=O)C(=O)N[C@@H](CC(=O)O)C(=O)N[C@@H](Cc1ccccc1)C(=O)N[C@H](C(=O)N[C@@H](CC(N)=O)C(=O)N[C@@H](Cc1c[nH]c2ccccc12)C(=O)N[C@@H](CC(C)C)C(=O)N[C@@H](CC(C)C)C(=O)N[C@@H](C)C(=O)N[C@@H](CCC(N)=O)C(=O)N[C@@H](CCCCN)C(N)=O)C(C)C)[C@@H](C)CC
B6: the “Fold change HSA (2%)/Casein (0.1%)” value in the experiment with human GIP receptor [1] amounted to 2.2 fold. In addition, in the experiment with human GIP receptor [2], the “cAMP agonism, Emax” value is 0; the “cAMP antagonism” value turned out to be 507 nM; the “cAMP antagonism, log” value is -6.3 log M. In the experiment with human GIP receptor [3], the IC50 worked out at 1380 nM and the logIC50 was -5.9 log M. Moreover, in the experiment with human GIP receptor [4], the IC50 was determined as 628 nM and the “log IC50” value was -6.2 log M. Further, in the experiment with human GIP receptor [5], the IC50 was found to be 631 nM and the logIC50 was -6.2 log M.

The values are drawn from US20200087373A1 (UNIVERSITY OF COPENHAGEN, published 2020).
